Experimental data as given in the supplement of paper PMC7125110.
± gives the standard error. For some of these results: Fewer inactive variants are shown than the library holds.

B1: glmS ribozyme (parent)
chain: AUAAAAGCGCCAGAACUACAGAAAUGUAGUUGACGAGGAGGAGGUUUAUCGAAUUUUCGGCGGAUGCCUCCAAA

Experiments:
Conditions in all cases: with glucosamine-6-phosphate
glucosamine-6-phosphate [1] = variants of: B1; assay: kcat; higher = faster cleavage; RNA array
How it was run: (§1)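 Tiles bearing barcoded ribozyme variants, transcribed in situ by E. coli RNA polymerase on sequenced MiSeq chips, were imaged over ~14 h at 37 °C using a hybridised Cy3 probe. Glucosamine-6-phosphate was supplied at 40 μM to 10 mM in HEPES/KCl/Mg(OAc)2 buffer. kobs came from one- or two-exponential decay fits to normalised per-tile medians, and weighted Michaelis–Menten fits then provided kcat and KM.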

glucosamine-6-phosphate [2] = variants of: B1; assay: KM; higher = weaker cofactor use; RNA array
How it was run: as §1

glucosamine-6-phosphate [3] = variants of: B1; assay: self-cleavage kobs at 640 uM GlcN6P; higher = faster cleavage; RNA array
How it was run: as §1

glucosamine-6-phosphate [4] = variants of: B1; assay: self-cleavage kobs at 2500 uM GlcN6P; higher = faster cleavage; RNA array
How it was run: as §1

glucosamine-6-phosphate [5] = variants of: B1; assay: self-cleavage kobs at 10000 uM GlcN6P; higher = faster cleavage; RNA array
How it was run: as §1

glucosamine-6-phosphate [6] = variants of: B1; assay: self-cleavage kobs at 160 uM GlcN6P; higher = faster cleavage; RNA array
How it was run: as §1

glucosamine-6-phosphate [7] = variants of: B1; assay: self-cleavage kobs at 40 uM GlcN6P; higher = faster cleavage; RNA array
How it was run: as §1

With G32U U55G U56A the kcat (glucosamine-6-phosphate [1]) was 0.000802 ± 4.9e-05 s⁻¹, the KM (glucosamine-6-phosphate [2]) was 5.53 ± 0.45 mM and the “self-cleavage kobs at 640 uM GlcN6P” value (glucosamine-6-phosphate [3]) was 8.29e-05 ± 1.1e-05 s⁻¹. The “self-cleavage kobs at 2500 uM GlcN6P” value (glucosamine-6-phosphate [4]) was 0.000255 ± 4.3e-05 s⁻¹ and the “self-cleavage kobs at 10000 uM GlcN6P” value (glucosamine-6-phosphate [5]) was 0.000509 ± 0.00011 s⁻¹.

For A48C G66A, the kcat (glucosamine-6-phosphate [1]) was 0.000159 ± 2.8e-05 s⁻¹, the “self-cleavage kobs at 160 uM GlcN6P” value (glucosamine-6-phosphate [6]) was < 1e-05 s⁻¹ and the “self-cleavage kobs at 2500 uM GlcN6P” value (glucosamine-6-phosphate [4]) was 8.27e-05 ± 1.8e-05 s⁻¹. For the same variant, the “self-cleavage kobs at 10000 uM GlcN6P” value (glucosamine-6-phosphate [5]) was 0.000121 ± 1.4e-05 s⁻¹.

In the case of A12G G29U C67G, the kcat (glucosamine-6-phosphate [1]) is reported as 7.88e-05 ± 1.7e-05 s⁻¹ and the “self-cleavage kobs at 10000 uM GlcN6P” value (glucosamine-6-phosphate [5]) is reported as 6.04e-05 ± 1.4e-05 s⁻¹.

For G37A A53C, the kcat (glucosamine-6-phosphate [1]) was 0.000609 ± 7.9e-05 s⁻¹, the KM (glucosamine-6-phosphate [2]) was 3.03 ± 0.74 mM and the “self-cleavage kobs at 640 uM GlcN6P” value (glucosamine-6-phosphate [3]) was 0.00012 ± 2.1e-05 s⁻¹. For the same variant, the “self-cleavage kobs at 2500 uM GlcN6P” value (glucosamine-6-phosphate [4]) was 0.00027 ± 3.6e-05 s⁻¹ and the “self-cleavage kobs at 10000 uM GlcN6P” value (glucosamine-6-phosphate [5]) was 0.000468 ± 5.8e-05 s⁻¹.

A39U A64C was tested, and the kcat (glucosamine-6-phosphate [1]) was 0.000269 ± 4.6e-05 s⁻¹, the KM (glucosamine-6-phosphate [2]) was 3.41 ± 1.1 mM and the “self-cleavage kobs at 640 uM GlcN6P” value (glucosamine-6-phosphate [3]) was 5.07e-05 ± 7e-06 s⁻¹. The “self-cleavage kobs at 2500 uM GlcN6P” value (glucosamine-6-phosphate [4]) was 9.58e-05 ± 1.3e-05 s⁻¹ and the “self-cleavage kobs at 10000 uM GlcN6P” value (glucosamine-6-phosphate [5]) was 0.00021 ± 1.9e-05 s⁻¹.

For U54C C58G, the kcat (glucosamine-6-phosphate [1]) was 5.26e-05 ± 4.8e-06 s⁻¹, the KM (glucosamine-6-phosphate [2]) was 7.25 ± 1.3 mM and the “self-cleavage kobs at 10000 uM GlcN6P” value (glucosamine-6-phosphate [5]) was 3.05e-05 ± 1.2e-05 s⁻¹.

In the case of G32A A53U, the kcat (glucosamine-6-phosphate [1]) is reported as 0.00208 ± 0.00084 s⁻¹, the “self-cleavage kobs at 40 uM GlcN6P” value (glucosamine-6-phosphate [7]) is reported as 3.74e-05 ± 9.9e-06 s⁻¹ and the “self-cleavage kobs at 160 uM GlcN6P” value (glucosamine-6-phosphate [6]) is reported as 0.000175 ± 3.9e-05 s⁻¹. The “self-cleavage kobs at 640 uM GlcN6P” value (glucosamine-6-phosphate [3]) was 0.000595 ± 0.0001 s⁻¹, the “self-cleavage kobs at 2500 uM GlcN6P” value (glucosamine-6-phosphate [4]) was 0.00067 ± 0.00016 s⁻¹ and the “self-cleavage kobs at 10000 uM GlcN6P” value (glucosamine-6-phosphate [5]) was 0.00228 ± 0.0003 s⁻¹.

For G44U U56G, the kcat (glucosamine-6-phosphate [1]) was 0.00018 ± 3.5e-05 s⁻¹, the KM (glucosamine-6-phosphate [2]) was 3.01 ± 1.1 mM and the “self-cleavage kobs at 640 uM GlcN6P” value (glucosamine-6-phosphate [3]) was 3.67e-05 ± 1.1e-05 s⁻¹. For the same variant, the “self-cleavage kobs at 2500 uM GlcN6P” value (glucosamine-6-phosphate [4]) was 6.96e-05 ± 1.9e-05 s⁻¹ and the “self-cleavage kobs at 10000 uM GlcN6P” value (glucosamine-6-phosphate [5]) was 0.00015 ± 3.7e-05 s⁻¹.

For C16G U46C, the kcat (glucosamine-6-phosphate [1]) was 0.000353 ± 5e-05 s⁻¹, the KM (glucosamine-6-phosphate [2]) was 2.31 ± 0.63 mM and the “self-cleavage kobs at 640 uM GlcN6P” value (glucosamine-6-phosphate [3]) was 8.24e-05 ± 2.7e-05 s⁻¹. For the same variant, the “self-cleavage kobs at 2500 uM GlcN6P” value (glucosamine-6-phosphate [4]) was 0.000169 ± 3.5e-05 s⁻¹ and the “self-cleavage kobs at 10000 uM GlcN6P” value (glucosamine-6-phosphate [5]) was 0.00032 ± 9e-05 s⁻¹.

For C10U A36G, the kcat (glucosamine-6-phosphate [1]) was < 1e-05 s⁻¹, the “self-cleavage kobs at 40 uM GlcN6P” value (glucosamine-6-phosphate [7]) was < 1e-05 s⁻¹ and the “self-cleavage kobs at 640 uM GlcN6P” value (glucosamine-6-phosphate [3]) was < 1e-05 s⁻¹. The “self-cleavage kobs at 10000 uM GlcN6P” value (glucosamine-6-phosphate [5]) was < 1e-05 s⁻¹.

With U46C C68G the kcat (glucosamine-6-phosphate [1]) was 5.04e-05 ± 2e-06 s⁻¹, the KM (glucosamine-6-phosphate [2]) was 0.811 ± 0.2 mM and the “self-cleavage kobs at 10000 uM GlcN6P” value (glucosamine-6-phosphate [5]) was 4.62e-05 ± 1.3e-05 s⁻¹.

In the case of C11A C68G, the kcat (glucosamine-6-phosphate [1]) is reported as < 1e-05 s⁻¹.

Variant C16U C61A has a kcat (glucosamine-6-phosphate [1]) of 1.08e-05 ± 2.3e-06 s⁻¹.

G40U A42U was tested, and the kcat (glucosamine-6-phosphate [1]) was 0.000115 ± 2e-05 s⁻¹, the “self-cleavage kobs at 160 uM GlcN6P” value (glucosamine-6-phosphate [6]) was 2.53e-05 ± 1.2e-05 s⁻¹ and the “self-cleavage kobs at 640 uM GlcN6P” value (glucosamine-6-phosphate [3]) was 4.15e-05 ± 9.6e-06 s⁻¹. For the same variant, the “self-cleavage kobs at 2500 uM GlcN6P” value (glucosamine-6-phosphate [4]) was 0.000109 ± 1.3e-05 s⁻¹ and the “self-cleavage kobs at 10000 uM GlcN6P” value (glucosamine-6-phosphate [5]) was 9.45e-05 ± 1.4e-05 s⁻¹.

With G44A C67G the kcat (glucosamine-6-phosphate [1]) was 0.000462 ± 7e-05 s⁻¹, the KM (glucosamine-6-phosphate [2]) was 1.7 ± 0.58 mM and the “self-cleavage kobs at 160 uM GlcN6P” value (glucosamine-6-phosphate [6]) was 2.41e-05 ± 1e-05 s⁻¹. For the same variant, the “self-cleavage kobs at 640 uM GlcN6P” value (glucosamine-6-phosphate [3]) was 0.000128 ± 1.5e-05 s⁻¹, the “self-cleavage kobs at 2500 uM GlcN6P” value (glucosamine-6-phosphate [4]) was 0.000355 ± 3.8e-05 s⁻¹ and the “self-cleavage kobs at 10000 uM GlcN6P” value (glucosamine-6-phosphate [5]) was 0.000371 ± 3e-05 s⁻¹.

For U30G A53U, the kcat (glucosamine-6-phosphate [1]) was 0.00761 ± 0.0027 s⁻¹, the “self-cleavage kobs at 40 uM GlcN6P” value (glucosamine-6-phosphate [7]) was 0.000261 ± 3.2e-05 s⁻¹ and the “self-cleavage kobs at 160 uM GlcN6P” value (glucosamine-6-phosphate [6]) was 0.000465 ± 0.00011 s⁻¹. For the same variant, the “self-cleavage kobs at 640 uM GlcN6P” value (glucosamine-6-phosphate [3]) was 0.0019 ± 0.00032 s⁻¹, the “self-cleavage kobs at 2500 uM GlcN6P” value (glucosamine-6-phosphate [4]) was 0.00357 ± 0.0007 s⁻¹ and the “self-cleavage kobs at 10000 uM GlcN6P” value (glucosamine-6-phosphate [5]) was 0.00788 ± 0.0011 s⁻¹.

A12C U47G was tested, and the kcat (glucosamine-6-phosphate [1]) was 0.00307 ± 0.00048 s⁻¹, the KM (glucosamine-6-phosphate [2]) was 1.4 ± 0.31 mM and the “self-cleavage kobs at 40 uM GlcN6P” value (glucosamine-6-phosphate [7]) was 9.09e-05 ± 1.3e-05 s⁻¹. The “self-cleavage kobs at 160 uM GlcN6P” value (glucosamine-6-phosphate [6]) was 0.000267 ± 4.4e-05 s⁻¹, the “self-cleavage kobs at 640 uM GlcN6P” value (glucosamine-6-phosphate [3]) was 0.00106 ± 0.00014 s⁻¹ and the “self-cleavage kobs at 2500 uM GlcN6P” value (glucosamine-6-phosphate [4]) was 0.00247 ± 0.00041 s⁻¹. For the same variant, the “self-cleavage kobs at 10000 uM GlcN6P” value (glucosamine-6-phosphate [5]) was 0.00245 ± 0.00036 s⁻¹.
